Source: patent US20260185137
Changes are numbered by the printed parent chain. In names and notes the source's numbering stands.

B1: R3-I77R, trimeric RING-foldon construct of rhesus monkey TRIM5alpha with the I77R mutation (protein)
chain: ASGILLNVKEEVTCPICLELLTEPLSLHCGHSFCQACITANHKKSMLYKEGERSCPVCRISYQPENIQPNRHVANRVEKLREVKLSPEEGQKVDGYIPEAPRDGQAYVRKDGEWVFLSTFLHHHHHH
B2: R3-WT, trimeric RING construct of rhesus monkey TRIM5alpha fused to T4 fibritin foldon (protein)
chain: B1 chain with R76I
B3: R2-WT, tandem RING dimer construct of rhesus monkey TRIM5alpha (protein)
chain: ASGILLNVKEEVTCPICLELLTEPLSLHCGHSFCQACITANHKKSMLYKEGERSCPVCRISYQPENIQPNRHVANIVEKLRGSASGILLNVKEEVTCPICLELLTEPLSLHCGHSFCQACITANHKKSMLYKEGERSCPVCRISYQPENIQPNRHVANIVEKLREVKLSPEEGQ
B4: R1-I77R, RING domain construct of rhesus monkey TRIM5alpha with the I77R mutation (protein)
chain: ASGILLNVKEEVTCPICLELLTEPLSLHCGHSFCQACITANHKKSMLYKEGERSCPVCRISYQPENIQPNRHVANRVEKLREVKLSPEE

Experiments:
[1] = target: AF594-UBE2N~AF488-Ub/UBE2V2 conjugate, P61088
Sequence of AF594-UBE2N~AF488-Ub/UBE2V2 conjugate, P61088 (P61088 whole entry, looked up): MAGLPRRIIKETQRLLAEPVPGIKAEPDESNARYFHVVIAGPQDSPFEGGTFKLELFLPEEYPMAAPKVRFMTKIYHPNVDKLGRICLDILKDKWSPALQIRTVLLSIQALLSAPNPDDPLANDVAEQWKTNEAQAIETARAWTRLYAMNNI

[2] = target: AF594-UBE2W~AF488-Ub conjugate, Q96B02
Sequence of AF594-UBE2W~AF488-Ub conjugate, Q96B02 (Q96B02 whole entry, looked up): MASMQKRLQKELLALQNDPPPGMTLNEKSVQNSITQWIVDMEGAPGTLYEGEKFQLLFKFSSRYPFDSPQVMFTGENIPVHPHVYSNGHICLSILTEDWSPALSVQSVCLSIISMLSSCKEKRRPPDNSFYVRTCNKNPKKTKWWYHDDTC

Row | Protein | E3 activity (kcat/Km) for ubiquitin discharge, FRET ubiquitin discharge assay [1] | E3 activity (initial slope of Michaelis-Menten curve of FRET decay amplitude), FRET ubiquitin discharge assay [2] | E3 activity per RING monomer for ubiquitin discharge, FRET ubiquitin discharge assay [1]
1 | B1 | catalysis of ubiquitin discharge from the UBE2N/V2-Ub conjugate is virtually abolished by the I77R mutation in the R1-177R and R3-177R constructs | the R3-177R and R1-177R constructs retained less than 10% of the R3-WT and R1-WT E3 activity, respectively | –
2 | B2 | – | significantly higher activity of the R3-WT construct in comparison to R2-WT | the E3 activity per RING monomer is lower in the R3-WT construct than in R2-WT
3 | B3 | The E3 activity of the R2-WT is also significantly higher than that of the R1-WT | – | –
4 | B4 | catalysis of ubiquitin discharge from the UBE2N/V2-Ub conjugate is virtually abolished by the I77R mutation in the R1-177R and R3-177R constructs | the R3-177R and R1-177R constructs retained less than 10% of the R3-WT and R1-WT E3 activity, respectively | –
